{"source": "paper PMC4652220", "about": "“Imaging and energetics of single SSB-ssDNA molecules reveal intramolecular condensation and insight into RecOR function” (eLife, 2015)", "binders": {"B1": {"name": "RecR (natural protein, UniProt P0A7H6 1-201, looked up)", "chain": "MQTSPLLTQLMEALRCLPGVGPKSAQRMAFTLLQRDRSGGMRLAQALTRAMSEIGHCADCRTFTEQEVCNICSNPRRQENGQICVVESPADIYAIEQTGQFSGRYFVLMGHLSPLDGIGPDDIGLDRLEQRLAEEKITEVILATNPTVEGEATANYIAELCAQYDVEASRIAHGVPVGGELEMVDGTTLSHSLAGRHKIRF", "notes": "RecR recombination protein; It cites other work for RecR dimers/tetramers; source: purified as previously described (Kantake et al., 2002)"}}, "molecular_target": "T1, RecO (UniProt P0A7H3 1-242)", "T1 construct": "RecO recombination mediator protein; source: purified as previously described (Kantake et al., 2002)", "T1 sequence (looked up)": "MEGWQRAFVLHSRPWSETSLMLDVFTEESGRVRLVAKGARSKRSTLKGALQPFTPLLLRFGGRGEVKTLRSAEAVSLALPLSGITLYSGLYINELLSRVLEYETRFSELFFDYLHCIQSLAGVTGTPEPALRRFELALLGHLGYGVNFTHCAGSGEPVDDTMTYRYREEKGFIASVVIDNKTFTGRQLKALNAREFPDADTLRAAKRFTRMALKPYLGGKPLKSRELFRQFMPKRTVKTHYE", "test": "magnetic tweezers force spectroscopy; single tethered ssDNA; added in turn: 100 mM NaOAc and 1 mM Mg(OAc)2, 200 nM SSB, 100 nM RecO, 1 μM RecR; 20 mM TrisOAc pH 8.0, 50 mM DTT; 25°C", "conditions": "both partners purified", "data": [{"binder": "B1", "values": [{"measurement": "binding result", "value": "binds"}]}]}
